# Measurements from the RNAGym collection of RNA variant scans (doi:10.7554/elife.80360).
# B1: CPEB3 Ribozyme (parent)
# chain: GGGGGCCACAGCAGAAGCGUUCACGUCGCGGCCCCUGUCAGAUUCUGGUGAAUCUGCGAAUUCUGCUGU
# Variants of: B1
# Test: self-cleavage, relative activity (ratio to wild type); higher = more cleavage; co-transcriptional
row,Variant,self-cleavage
1,GGGGGCCACAGCAGAAGCGUUCACGUCGCGGCCCCUGUCAGAUUCUCGUGAGUCUGCGAAUUCUGCUGU,1
2,GGGGGCCACAGCAGAAGCGUUCACGUCGCGGCCCCUGUCAGAUUCUCGUGAUUCUGCGAAUUCUGCUGU,1.05
3,GGGGGCCACAGCAGAAGCGUUCACGUCGCGGCCCCUGUCAGAUUCUCGUGAAUCUGCGCAUUCUGCUGU,0.837
4,GGGGGCCACAGCAGAAGCGUUCACGUCGCGGCCCCUGUCAGAUUCUCGUGAAUCUGCGGAUUCUGCUGU,0.958
5,GGGGGCCACAGCAGAAGCGUUCACGUCGCGGCCCCUGUCAGAUUCUCGUGAAUCUGCGUAUUCUGCUGU,0.863
6,GGGGGCCACAGCAGAAGCGUUCACGUCGCGGCCCCUGUCAGAUUCUCGUGAAUCUGCGAUUUCUGCUGU,0.562
7,GGGGGCCACAGCAGAAGCGUUCACGUCGCGGCCCCUGUCAGAUUCUCGUGAAUGUGCGAAUUCUGCUGU,0.959
8,GGGGGCCACAGCAGAAGCGUUCACGUCGCGGCCCCUGUCAGAUUCUCGUGAAUUUGCGAAUUCUGCUGU,0.987
9,GGGGGCCACAGCAGAAGCGUUCACGUCGCGGCCCCUGUCAGAUUCUCGUGAAUCUGAGAAUUCUGCUGU,0.32
10,GGGGGCCACAGCAGAAGCGUUCACGUCGCGGCCCCUGUCAGAUUCUCGUGAAUCUGUGAAUUCUGCUGU,0.344
11,GGGGGCCACAGCAGAAGCGUUCACGUCGCGGCCCCUGUCAGAUUCUCGUGAAUCUGCGAAUUUUGCUGU,1.01
12,GGGGGCCACAGCAGAAGCGUUCACGUCGCGGCCCCUGUCAGAUUCUCGUGAAUCUGCGAAUUCUGAUGU,0.897
13,GGGGGCCACAGCAGAAGCGUUCACGUCGCGGCCCCUGUCAGAUUCUCGUGAAUCUGCGAAUUCUGGUGU,0.91
14,GGGGGCCACAGCAGAAGCGUUCACGUCGCGGCCCCUGUCAGAUUCUCAUGAAUCUGCGAAUUCUGCUGU,0.988
15,GGGGGCCACAGCAGAAGCGUUCACGUCGCGGCCCCUGUCAGAUUCUCGUCAAUCUGCGAAUUCUGCUGU,1.02
16,GGGGGCCACAGCAGAAGCGUUCACGUCGCGGCCCCUGUCAGAUUCUCGUUAAUCUGCGAAUUCUGCUGU,0.998
17,GGGGGCCACAGCAGAAGCGUUCACGUCGCGGCCCCUGUCAGAUUCUCGUGAAUCUCCGAAUUCUGCUGU,0.92
18,GGGGGCCACAGCAGAAGCGUUCACGUCGCGGCCCCUGUCAGAUUCUCGUGAAUCUUCGAAUUCUGCUGU,1.02
19,GGGGGCCACAGCAGAAGCGUUCACGUCGCGGCCCCUGUCAGAUUCUCGUGAAUCUGCAAAUUCUGCUGU,0.939
20,GGGGGCCACAGCAGAAGCGUUCACGUCGCGGCCCCUGUCAGAUUCUCGUGAAUCUGCCAAUUCUGCUGU,0.977
21,GGGGGCCACAGCAGAAGCGUUCACGUCGCGGCCCCUGUCAGAUUCUCGUGAAUCUGCUAAUUCUGCUGU,0.997
22,GGGGGCCACAGCAGAAGCGUUCACGUCGCGGCCCCUGUCAGAUUCUCGUGAAUCUGCGAAUUCUACUGU,0.963
23,GGGGGCCACAGCAGAAGCGUUCACGUCGCGGCCCCUGUCAGAUUCUCGUGAAUCUGCGAAUUCUCCUGU,0.726
24,GGGGGCCACAGCAGAAGCGUUCACGUCGCGGCCCCUGUCAGAUUCUCGUGAAUCUGCGAAUUCUUCUGU,0.908
25,GGGGGCCACAGCAGAAGCGUUCACGUCGCGGCCCCUGUCAGAUUCUCGUGAAUCUGCGAAUUCUGCUAU,1
26,GGGGGCCACAGCAGAAGCGUUCACGUCGCGGCCCCUGUCAGAUUCUCGUGAAUCUGCGAAUUCUGCUCU,1.02

row,Variant,self-cleavage
1,GGGGGCCACAGCAGAAGCGUUCACGUCGCGGCCCCUGUCAGAUUCUCGUGAAUCUGCGAAUUCUGCUUU,0.994
2,GGGGGCCACAGCAGAAGCGUUCACGUCGCGGCCCCUGUCAGAUUCUCGCGAAUCUGCGAAUUCUGCUGU,0.981
3,GGGGGCCACAGCAGAAGCGUUCACGUCGCGGCCCCUGUCAGAUUCUCGGGAAUCUGCGAAUUCUGCUGU,1
4,GGGGGCCACAGCAGAAGCGUUCACGUCGCGGCCCCUGUCAGAUUCUCGUGAAACUGCGAAUUCUGCUGU,0.967
5,GGGGGCCACAGCAGAAGCGUUCACGUCGCGGCCCCUGUCAGAUUCUCGUGAACCUGCGAAUUCUGCUGU,0.992
6,GGGGGCCACAGCAGAAGCGUUCACGUCGCGGCCCCUGUCAGAUUCUCGUGAAGCUGCGAAUUCUGCUGU,0.911
7,GGGGGCCACAGCAGAAGCGUUCACGUCGCGGCCCCUGUCAGAUUCUCGUGAAUCCGCGAAUUCUGCUGU,0.943
8,GGGGGCCACAGCAGAAGCGUUCACGUCGCGGCCCCUGUCAGAUUCUCGUGAAUCUGCGAAAUCUGCUGU,0.97
9,GGGGGCCACAGCAGAAGCGUUCACGUCGCGGCCCCUGUCAGAUUCUCGUGAAUCUGCGAAGUCUGCUGU,0.937
10,GGGGGCCACAGCAGAAGCGUUCACGUCGCGGCCCCUGUCAGAUUCUCGUGAAUCUGCGAAUACUGCUGU,1
11,GGGGGCCACAGCAGAAGCGUUCACGUCGCGGCCCCUGUCAGAUUCUCGUGAAUCUGCGAAUGCUGCUGU,0.901
12,GGGGGCCACAGCAGAAGCGUUCACGUCGCGGCCCCUGUCAGAUUCUCGUGAAUCUGCGAAUUCAGCUGU,0.979
13,GGGGGCCACAGCAGAAGCGUUCACGUCGCGGCCCCUGUCAGAUUCUCGUGAAUCUGCGAAUUCGGCUGU,0.938
14,GGGGGCCACAGCAGAAGCGUUCACGUCGCGGCCCCUGUCAGAUUCUCGUGAAUCUGCGAAUUCUGCCGU,0.993
15,GGGGGCCACAGCAGAAGCGUUCACGUCGCGGCCCCUGUCAGAUUCUCGUGAAUCUGCGAAUUCUGCGGU,1.06
16,GGGGGCCACAGCAGAAGCGUUCACGUCGCGGCCCCUGUCAGAUUCUCGUGAAUCUGCGAAUUCUGCUGC,1.06
17,GGGGGCCACAGCAGAAGCGUUCACGUCGCGGCCCCUGUCAGAUUCUUGUGAAUCUGCGAAUUCUGCUGU,1
18,GGGGGCCACAGCAGAAGCGUUCACGUCGCGGCCCCUGUCAGAUUCUUGUGCAUCUGCGAAUUCUGCUGU,0.997
19,GGGGGCCACAGCAGAAGCGUUCACGUCGCGGCCCCUGUCAGAUUCUUGUGUAUCUGCGAAUUCUGCUGU,1.01
20,GGGGGCCACAGCAGAAGCGUUCACGUCGCGGCCCCUGUCAGAUUCUUGUGAUUCUGCGAAUUCUGCUGU,0.973
21,GGGGGCCACAGCAGAAGCGUUCACGUCGCGGCCCCUGUCAGAUUCUUGUGAAUCUGCGCAUUCUGCUGU,0.832
22,GGGGGCCACAGCAGAAGCGUUCACGUCGCGGCCCCUGUCAGAUUCUUGUGAAUCUGCGGAUUCUGCUGU,1
23,GGGGGCCACAGCAGAAGCGUUCACGUCGCGGCCCCUGUCAGAUUCUUGUGAAUCUGCGACUUCUGCUGU,0.386
24,GGGGGCCACAGCAGAAGCGUUCACGUCGCGGCCCCUGUCAGAUUCUUGUGAAUCUGCGAGUUCUGCUGU,0.912
25,GGGGGCCACAGCAGAAGCGUUCACGUCGCGGCCCCUGUCAGAUUCUUGUGAAUCUGCGAUUUCUGCUGU,0.552
26,GGGGGCCACAGCAGAAGCGUUCACGUCGCGGCCCCUGUCAGAUUCUUGUGAAUAUGCGAAUUCUGCUGU,0.987

row,Variant,self-cleavage
1,GGGGGCCACAGCAGAAGCGUUCACGUCGCGGCCCCUGUCAGAUUCUUGUGAAUUUGCGAAUUCUGCUGU,1.05
2,GGGGGCCACAGCAGAAGCGUUCACGUCGCGGCCCCUGUCAGAUUCUUGUGAAUCUGAGAAUUCUGCUGU,0.396
3,GGGGGCCACAGCAGAAGCGUUCACGUCGCGGCCCCUGUCAGAUUCUUGUGAAUCUGGGAAUUCUGCUGU,0.311
4,GGGGGCCACAGCAGAAGCGUUCACGUCGCGGCCCCUGUCAGAUUCUUGUGAAUCUGUGAAUUCUGCUGU,0.378
5,GGGGGCCACAGCAGAAGCGUUCACGUCGCGGCCCCUGUCAGAUUCUUGUGAAUCUGCGAAUUCUGAUGU,0.933
6,GGGGGCCACAGCAGAAGCGUUCACGUCGCGGCCCCUGUCAGAUUCUUGUGAAUCUGCGAAUUCUGGUGU,0.914
7,GGGGGCCACAGCAGAAGCGUUCACGUCGCGGCCCCUGUCAGAUUCUUGUGAAUCUGCGAAUUCUGUUGU,1.02
8,GGGGGCCACAGCAGAAGCGUUCACGUCGCGGCCCCUGUCAGAUUCUUCUGAAUCUGCGAAUUCUGCUGU,1.02
9,GGGGGCCACAGCAGAAGCGUUCACGUCGCGGCCCCUGUCAGAUUCUUGUAAAUCUGCGAAUUCUGCUGU,1.01
10,GGGGGCCACAGCAGAAGCGUUCACGUCGCGGCCCCUGUCAGAUUCUUGUCAAUCUGCGAAUUCUGCUGU,1
11,GGGGGCCACAGCAGAAGCGUUCACGUCGCGGCCCCUGUCAGAUUCUUGUGAAUCUACGAAUUCUGCUGU,0.966
12,GGGGGCCACAGCAGAAGCGUUCACGUCGCGGCCCCUGUCAGAUUCUUGUGAAUCUCCGAAUUCUGCUGU,0.885
13,GGGGGCCACAGCAGAAGCGUUCACGUCGCGGCCCCUGUCAGAUUCUUGUGAAUCUGCAAAUUCUGCUGU,0.946
14,GGGGGCCACAGCAGAAGCGUUCACGUCGCGGCCCCUGUCAGAUUCUUGUGAAUCUGCCAAUUCUGCUGU,0.963
15,GGGGGCCACAGCAGAAGCGUUCACGUCGCGGCCCCUGUCAGAUUCUUGUGAAUCUGCUAAUUCUGCUGU,0.994
16,GGGGGCCACAGCAGAAGCGUUCACGUCGCGGCCCCUGUCAGAUUCUUGUGAAUCUGCGAAUUCUCCUGU,0.736
17,GGGGGCCACAGCAGAAGCGUUCACGUCGCGGCCCCUGUCAGAUUCUUGGGAAUCUGCGAAUUCUGCUGU,0.989
18,GGGGGCCACAGCAGAAGCGUUCACGUCGCGGCCCCUGUCAGAUUCUUGUGAACCUGCGAAUUCUGCUGU,1.02
19,GGGGGCCACAGCAGAAGCGUUCACGUCGCGGCCCCUGUCAGAUUCUUGUGAAGCUGCGAAUUCUGCUGU,0.991
20,GGGGGCCACAGCAGAAGCGUUCACGUCGCGGCCCCUGUCAGAUUCUUGUGAAUCAGCGAAUUCUGCUGU,0.961
21,GGGGGCCACAGCAGAAGCGUUCACGUCGCGGCCCCUGUCAGAUUCUUGUGAAUCGGCGAAUUCUGCUGU,0.937
22,GGGGGCCACAGCAGAAGCGUUCACGUCGCGGCCCCUGUCAGAUUCUUGUGAAUCUGCGAAAUCUGCUGU,0.984
23,GGGGGCCACAGCAGAAGCGUUCACGUCGCGGCCCCUGUCAGAUUCUUGUGAAUCUGCGAAGUCUGCUGU,0.906
24,GGGGGCCACAGCAGAAGCGUUCACGUCGCGGCCCCUGUCAGAUUCUUGUGAAUCUGCGAAUCCUGCUGU,0.912
25,GGGGGCCACAGCAGAAGCGUUCACGUCGCGGCCCCUGUCAGAUUCUUGUGAAUCUGCGAAUGCUGCUGU,0.903
26,GGGGGCCACAGCAGAAGCGUUCACGUCGCGGCCCCUGUCAGAUUCUUGUGAAUCUGCGAAUUCGGCUGU,0.913
